Assay results taken from US8961986B2, “Peptide composition” (Apitope Technology (Bristol) Limited, priority 2000, dated 2015).

Experiments:
HLA-DR2a = molecular target: T1, HLA-DR2a (Homo sapiens, UniProt P01903+Q30154); test: Antigen presentation assay, HLA-DR2a transfected L-cells; assay type: cell-based
T1 construct: expressed in transfected cells; host or cells: L-cells
Description: (§1) MBP peptides 30-44, 130-144 and 139-153 were synthesized using L-amino acids and standard F-moc chemistry on an Abimed AMS 422 multiple peptide synthesiser.
(§2) L-cells transfected with either HLA-DQ6, HLA-DR2a or HLA-DR2b, or Mgar cells (EACC, Porton Down, UK) which express HLA-DQ, DP and DR were used as APCs.
(§3) T-cell clones MS 49:D3 and MS17:A2 were generated from MS patients and clone N5:19 was generated from a normal individual. All three clones were DR2 positive.
(§4) Antigen presenting cells were incubated with the various concentrations of peptide and the appropriate T-cells. Proliferation, and therefore activation, of the T-cells was measured by [^3H]-Thymidine incorporation, and expressed as the stimulation index (SI=corrected counts per minute (ccpm) culture containing peptide/ccpm culture without peptide).

HLA-DR2b = molecular target: T2, HLA-DR2b (Homo sapiens, UniProt P01903+P01911); test: Antigen presentation assay, HLA-DR2b transfected L-cells; assay type: cell-based
T2 construct: expressed in transfected cells; host or cells: L-cells
Description: as §1, §2, §3, §4

T2 sequence (P01903 26-254): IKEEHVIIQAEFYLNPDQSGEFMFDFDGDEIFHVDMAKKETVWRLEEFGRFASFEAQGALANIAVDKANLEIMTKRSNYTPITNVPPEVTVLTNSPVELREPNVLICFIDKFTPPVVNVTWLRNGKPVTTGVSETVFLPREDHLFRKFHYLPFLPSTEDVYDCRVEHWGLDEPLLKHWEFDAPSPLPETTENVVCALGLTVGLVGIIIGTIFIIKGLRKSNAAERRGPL
T2 sequence (P01911 30-266): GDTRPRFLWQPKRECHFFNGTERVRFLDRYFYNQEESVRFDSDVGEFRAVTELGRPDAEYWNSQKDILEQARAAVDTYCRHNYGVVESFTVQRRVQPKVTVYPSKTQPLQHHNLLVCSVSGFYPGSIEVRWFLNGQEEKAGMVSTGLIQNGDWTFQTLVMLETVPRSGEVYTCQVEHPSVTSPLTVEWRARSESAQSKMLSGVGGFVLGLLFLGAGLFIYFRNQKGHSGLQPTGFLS
T1 sequence (P01903 26-254): as the sequence (P01903 26-254) above
T1 sequence (Q30154 30-266): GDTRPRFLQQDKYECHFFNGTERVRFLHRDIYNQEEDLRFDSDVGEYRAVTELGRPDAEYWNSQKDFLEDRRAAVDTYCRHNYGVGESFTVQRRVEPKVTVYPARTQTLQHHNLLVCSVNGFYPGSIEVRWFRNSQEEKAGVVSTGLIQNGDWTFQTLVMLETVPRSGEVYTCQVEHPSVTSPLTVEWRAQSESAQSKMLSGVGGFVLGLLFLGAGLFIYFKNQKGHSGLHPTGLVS

proliferation of N5:19 T-cell clone, HLA-DR2a transfected L-cells (HLA-DR2a): stimulated proliferation
proliferation of N5:19 T-cell clone, HLA-DR2b transfected L-cells (HLA-DR2b): not
Substance: MBP 139-153: MBP peptide 139-153 synthesized using L-amino acids (RPSQRHGSKYLATAS)
